This is an account of results in article PMC6683012.

The labels stand for the following.
B1: QSK1-nYFP [Arabidopsis] / SIRK1-cYFP [Arabidopsis] (parent)
chain 1: SDLESDRRALLAVRNSVRGRPLLWNMSASSPCNWHGVHCDAGRVTALRLPGSGLFGSLPIGGIGNLTQLKTLSLRFNSLSGPIPSDFSNLVLLRYLYLQGNAFSGEIPSLLFTLPSIIRINLGENKFSGRIPDNVNSATRLVTLYLERNQLSGPIPEITLPLQQFNVSSNQLNGSIPSSLSSWPRTAFEGNTLCGKPLDTCEAESPNGGDAGGPNTPPEKKDSDKLSAGAIVGIVIGCVVGLLLLLLILFCLCRKRKKEENVPSRNVEAPVAAATSSAAIPKETVVVVPPAKATGSESGAVNKDLTFFVKSFGEFDLDGLLKASAEVLGKGTVGSSYKASFEHGLVVAVKRLRDVVVPEKEFRERLHVLGSMSHANLVTLIAYYFSRDEKLLVFEYMSKGSLSAILHGNKGNGRTPLNWETRAGIALGAARAISYLHSRDGTTSHGNIKSSNILLSDSYEAKVSDYGLAPIISSTSAPNRIDGYRAPEITDARKISQKADVYSFGVLILELLTGKSPTHQQLNEEGVDLPRWVQSVTEQQTPSDVLDPELTRYQPEGNENIIRLLKIGMSCTAQFPDSRPSMAEVTRLIEEVSHSSGSPNPVSD
chain 2: VTETELRSLLEFRKGIRDETSHQRISWSDTSSLTDPSTCPNDWPGISCDPETGSIIAINLDRRGLSGELKFSTLSGLTRLRNLSLSGNSFSGRVVPSLGGISSLQHLDLSDNGFYGPIPGRISELWSLNHLNLSSNKFEGGFPSGFRNLQQLRSLDLHKNEIWGDVGEIFTELKNVEFVDLSCNRFNGGLSLPMENISSISNTLRHLNLSHNALNGKFFSEESIGSFKNLEIVDLENNQINGELPHFGSQPSLRILKLARNELFGLVPQELLQSSIPLLELDLSRNGFTGSISEINSSTLTMLNLSSNGLSGDLPSSFKSCSVIDLSGNTFSGDVSVVQKWEATPDVLDLSSNNLSGSLPNFTSAFSRLSVLSIRNNSVSGSLPSLWGDSQFSVIDLSSNKFSGFIPVSFFTFASLRSLNLSRNNLEGPIPFRGSRASELLVLNSYPQMELLDLSTNSLTGMLPGDIGTMEKIKVLNLANNKLSGELPSDLNKLSGLLFLDLSNNTFKGQIPNKLPSQMVGFNVSYNDLSGIIPEDLRSYPPSSFYPGNSKLSLPGRIPADSSGDLSLPGKKHHSKLSIRIAIIVASVGAAIMILFVLFAYHRTQLKDFHGRNRFTDQATTRDTKFGRSSRPSLFNFSSNVEQQSSSLSFSNDHLLTANSRSLSGIPGCEAEISEQGAPATSAPTNLLDDYPAASGRKSSSGGSPLSSSPRFSDQPVMLDVYSPDRLAGELFFLDVSLKLTAEELSRAPAEVLGRSSHGTLYKATLDNGHMLTVKWLRVGLVRHKKDFAREAKKIGSLKHPNIVPLRAYYWGPREQERLLLSDYLRGESLAMHLYETTPRRYSPMSFSQRLKVAVEVAQCLLYLHDRAMPHGNLKPTNIILSSPDNTVRITDYCVHRLMTPSGVAEQILNMSALGYSAPELSSASKPIPTLKSDVYAFGVILMELLTRRSAGDIISGQTGAVDLTDWVRLCDQEGRRMDCIDRDIAGGEEFSKGMEDALAVAIRCILSVNERPNIRQVLDHLTSISA
B2: SIRK1-cYFP [Arabidopsis] / QSK2-nYFP [Arabidopsis] (parent)
chain 1: B1 chain 2
chain 2: DLEADRRALIALRDGVHGRPLLWNLTAPPCTWGGVQCESGRVTALRLPGVGLSGPLPIAIGNLTKLETLSFRFNALNGPLPPDFANLTLLRYLYLQGNAFSGEIPSFLFTLPNIIRINLAQNNFLGRIPDNVNSATRLATLYLQDNQLTGPIPEIKIKLQQFNVSSNQLNGSIPDPLSGMPKTAFLGNLLCGKPLDACPVNGTGNGTVTPGGKGKSDKLSAGAIVGIVIGCFVLLLVLFLIVFCLCRKKKKEQVVQSRSIEAAPVPTSSAAVAKESNGPPAVVANGASENGVSKNPAAVSKDLTFFVKSFGEFDLDGLLKASAEVLGKGTFGSSYKASFDHGLVVAVKRLRDVVVPEKEFREKLQVLGSISHANLVTLIAYYFSRDEKLVVFEYMSRGSLSALLHGNKGSGRSPLNWETRANIALGAARAISYLHSRDATTSHGNIKSSNILLSESFEAKVSDYCLAPMISPTSTPNRIDGYRAPEVTDARKISQKADVYSFGVLILELLTGKSPTHQQLHEEGVDLPRWVSSITEQQSPSDVFDPELTRYQSDSNENMIRLLNIGISCTTQYPDSRPTMPEVTRLIEEVSRSPASPGPLSD
B3: SIRK1-cYFP [Arabidopsis] / QSK1-nYFP [Arabidopsis] (parent)
chain 1: B1 chain 2
chain 2: B1 chain 1

The first test covers variants of B1. Description: ratiometric bimolecular fluorescence complementation (rBiFC). As to conditions: with SIRK1-cYFP [Arabidopsis]; n=14 cells (parent n=10); value is box-plot median; parent: 0.9; read off a plot.
For the variant chain 1 S598A S603A, the response is 1.

The same test, now with this note: with SIRK1-cYFP [Arabidopsis]; n=12 cells (parent n=10); value is box-plot median; parent: 0.9; read off a plot.
For the variant chain 1 S598D S603D, the response turned out to be 1.8.

Variants of B2 are the subject of a further test. The description is as above. To be noted: with QSK2-nYFP [Arabidopsis]; n=35 cells (parent n=32); value is box-plot median; parent: 1.6; read off a plot.
chain 1 S723D: the response was 1.7.

Staying with this test, now noted: with QSK2-nYFP [Arabidopsis]; n=34 cells (parent n=32); value is box-plot median; parent: 1.6; read off a plot.
Take chain 1 S723A: the response turned out to be 0.15.

In another test the parent is B3. The description is as above. As to conditions: with QSK1-nYFP [Arabidopsis]; n=10 cells (parent n=10); value is box-plot median; parent: 0.9; read off a plot.
With chain 1 S723A, the response came out at 0.18.

In the case of chain 1 S723D, the response was determined as 1.3.
